Experimental data as given in the DeepSol protein solubility set.

Assay: soluble on expression in E. coli; label from the status in PepcDB or PDB records

Sequence	soluble on expression in E. coli
MSLRVYVTGNITVDETWSIPDIPKKGASIHGVKVSQDIGGKGANQAIILSRCGIETRLIAATGNDSNGAWIRQQIKNEPLMLLPDGHFNQHSDTSIILNSADGDNAIITTTAAADTFSLDEMIPHMADAVAGDILLQQGNFSLDKTRALFQYARSRGMTTVFNPSPVNPDFCHLWPLIDIAVVNESEAELLQPYGVKTLVITQGAAGAWLVQEGQRQFCPAVPAEALDTTGAGDTFLAVMLASALLRGVAPDALALAHASRAAAITVSRRGTLSAFPGSRELAALLTTDGAEGHHHHHH	soluble
MSLSALIINEYREQGGTAISFPEDISRARQKLFRFLDNRFDSDQYRENVRELTPAIMAVLPVEFRTRLAPQNDTMSLIASAMKECSEAKQAVLLNAPEHQKMKEVSEGIASLFRLMPEQVGPLMTMVTSMLGVIEGHHHHHH	not soluble
MSLSAQHAAHAQADTITALGAYLTTLAESHGQDEVAQAMCEIATQTLPRSCGELWQLSLDREGWYHGGGWQTGTVLPPQGYTLRATLPRGPTDELRLPLQAHGLTVGEVRAPYEGLESEQEQQLLQTLSTAAAISLSGHLLQRRVRHRNVRDPLTGLFNRRYLEDTLERELHRARRVNAGLVLIRLEVDTLDAFAAEHGSETADRLMQAMADAVHHAFRGSDVCCRAGDDGFGILLPDASLDNGAMRAEAVREELAELRIHQRGRPLGPVTVSAGVAAYPDHSSNRDLLLDAAESAVTRARDEGGDVLRIAELVSPPNPNQGHHHHHH	soluble
MSLSARSSHLSQPVVKSVLVYRNGDPFYAGRRVVIHEKKVSSFEVFLKEVTGGVQAPFGAVRNIYTPRTGHRIRKLDQIQSGGNYVAGGQEAFKKLNYLDIGEIKKRPMEVVNTEVKPVIHSRINVSARFRKPLQEPCTIFLIANGDLINPASRLLIPRKTLNQWDHVLQMVTEKITLRSGAVHRLYTLEGKLVESGAELENGQFYVAVGRDKFKKLPYSELLFDKSTMREGHHHHHH	not soluble
MSLSDDIKVLGISGSLRSGSYNSAALQEAIGLVPPGMSIELADISGIPLYNEDVYALGFPPAVERFREQIRAADALLFATPEYNYSMAGVLKNAIDWASRPPEQPFSGKPAAILGASAGRFGTARAQYHLRQTLVFLDVHPLNKPEVMISSAQNAFDAQGRLLDDKARELIQQQLQALQLWVREGGSHHHHHH	soluble
MSLSDLDRAIAQLRACRLIPEAQVRELCYKARELLIEEGNVVCVDAPVTICGDIHGQFHDLMELFRVGGDVPDTNYLFMGDFVDRGFYSLESEGHHHHHH	not soluble
MSLSELHALLTFPERPISQSYYVPKLQHFLKSGIPATYTLEQVAAFEHEEKNRNGDKEFRESTDDNKTSNTTPLHVLARSLPLDIKDEELQVVMDMMNILFEYGAGWNFIDYEDKTVGDLFLERNQSRESPLYRRLVEAGVSAELLLRKLNGGDVEFLDTDELIGIEPEESVQTAVDGQKEESVGSDDDATAANQQVYLKTELEYKDDALITKENKDGVMMDWETKIMELASETLFPDPEATNSATILNIGFGMGIIDTFIQARKPYRHYICEAHPDVLAKMKMDGWYEKDNVVILEGRWQDTLNNLLDKGEVFFDGIYYDTFSEHYQDILDLYDVVVGLIKPEGVFSFFNGLGADRSLCYDVYKEIVEIDVATYGMKCDYTRYSLDEQLPDWNDVKRSYFNCNYYYHPRITFAEGHHHHHH	not soluble
MSLSFDFSPDFNPLAARMRPASVEEYIGQSHLLGEGKPLRQALLAGKVHSMLLWGPPGTGKTTLAELVARYANAHVERISAVTSGVKEIRAAIEQAKNVAQSRGQRTLLFVDEVHRFNKSQQDAFLPFIEDGTVIFIGATTENPSFEVNNALLSRCRVYLIKRLEDDAIGQILAQANSDEARGLGKRGLLLKAELKSAIARLCDGDARKALNLLELMSDLLPDGGEYNLELLSEVAGHQAAGYDKNGDQYYDLISAVHKSIRGSAPDAALYWFCRILEGGGDPLYVARRLLAIASEDIGNADPNAMTVALNAWDCFHRVGPAEGERAIAQAVIYLASAPKSNAVYTAFKAARVLARETGNAPVPNHLRNAPTKLMSELGVGEGYRYAHDEDGAFAAGENYFPEVLQHSRIYQPTARGFEKRIRDKLAHLDALNQQSEGHHHHHH	soluble
MSLSFTVAVKEEILGQHHLSRHELSAIIKMSGSIGLSTSGLTLSVVTENAKLARHLYESFLHFYEIKSEIRHHQRSNLRKNRVYTVFTDEKVQDLLSDLHLADSFFGLETGIDEAILSDEEAGRAYLCGAFLANGSIRDPESGKYQLEISSVYLDHAQGIASLLQQFLLDAKVLERKKGAVTYLQRAEDIMDFLIVIGAMQARDDFERVKILRETRNDLNRANNAETANIARTVSASMKTINNISKIKDIMGLENLPVDLQEVAQLRIQHPDYSIQQLADSLSTPLTKSGVNHRLRKINKIADELEGHHHHHH	soluble
MSLSGFDADAIDRTTAADLAEVGSDKWTRYPGCIGAFIAEMDYGLAPCIQQAIDSACDHCKLGYIPEPWKRRVAEACAGWQKSHYGWDVDPDIIRVVPDVLEAYEIFLRELVGAGNAVVVPTPAYMPFLSVPKLYDVDVIEIEMLQGTDETTGEREWLFDFNAIERAFAAGCHAFVLCNPHNPIGKVLTLAEEQRLCELAERYDVRIFNDEIHAPFVFEGRHIPYPTISKAAARQSMTATSASKSFNIPGTKCAQVLLTNPADREMWAERAEWSEHQTATIGAIATTTAYNEGDPWFQDALSYVRRNLGLFDKQMRTRFSGVGYIRPRGTYIAWLDFGPLGIDDPAAYFLEKAKVALTDGRSCGRAGAGCVRVNMAMPYPLLVDCLNRMHDALQADGEGHHHHHH	soluble
MSLSGKNNIELDSWKKAINVISKNMDNGRIGIVQGPPGTGKTTIYANAFSRYFDKLGDGNIIVYIAPTNELVYDMFKKVGSEYAKRGAIDRISHEVRVYGSIFDQDPSIRSIREPPSMETKIVLMTNYQRLYPGNNRFNYNVMIDEASKSPLHTAFIGLANQLAKDELDGSISIVGDPMQAISLGPYQGSARRMLIMSYLLAPMLNHSSRDLNDRELLAEAKRSAIRGSSFEFLEVTLRMPSPSEEAISKGFYDNDLRAYRSASQILHSNYEANKLRELATEKEQMRKITEKVEELISTGRCILYERVNEKKSYDSNYYRKYGLTYDPTRAELGIETAIALAAGTGKHTTVITTYVDQQIQMDLLMRRKYGYILEKYGIRDQISFSTTQSFLGAEDDNIVAVLGKEYSISTYTQNYSTSTYNEGDPSTIYFNEPEVLNVQLSRHKMLLAIIGNLSILASQAAEGHHHHHH	not soluble
MSLSHIRPDFPEPYGLPVDGLRGKTSIFSHPVYLFLREFSLQDSRGGSLSKKAESLSSGKITIGTKEKVIIINELRQCHPLSQLLVIADLPRSTFYYHVKRLNAPDPYQLVKQVILRIYHQHKGRYGYRRIRLACRNESILLNGKTIRKLMKELGISSLIRRKKYRTYRGEQGRTCNNLLKRQFYADRPNQKWVTDVTEFKVDGRKLYLSPIMDLYNGEIVSYNLTERPLASMVKSMLLDAVEQLNKDDKPLLHSDQGWQYQMPRWQRWLSDNGITQSMSRRGNCLDNAAMESFFSTLKEGHHHHHH	not soluble
MSLSIFSHFQERFEATRQEEYSLQEYLDLCKQDKTAYASAAERLLMAIGEPELLDTSVDSRLSRIFSNKVIRRYPAFADFHGMEECIDQIVAFFRHAAQGLEEKKQILYLLGPVGGGKSSLAEKLKQLMEKVPFYAIKGSPVFESPLGLFNPDEDGAILEEDYGIPRRYLRSIMSPWATKRLNEFGGDISQFRVVKLYPSILNQIAIAKTEPGDENNQDISALVGKVDIRKLEEYPQNDADAYSYSGALCRANQGLMEFVEMFKAPIKVLHPLLTATQEGNYNSTEGLGALPYSGIILAHSNESEWHSFRNNKNNEAFIDRIYIVKVPYCLRVADEIKIYDKLLVNSSLAHAHCAPDTLKMLSQFSVLSRLKEPENSNIYSKMRVYDGENLKDTDPKAKSIQEYRDSAGVDEGMAGLSTRFAFKILSKVFNFDPHEVAANPVHLLYVLEQQIEQEQFQPETRERYLRFIKEYLAPRYVEFIGKEIQTAYLESYSEYGQNIFDRYVLYADFWIQDQEYRDPETGEILNRAALNEELEKIEKPAGISNEGHHHHHH	not soluble
MSLSIQRILFPTDFSDGARRAFPQAAHLADWHDAGLHILNVTGRHRHDHEETTANFPIATDTLTKWLRRPEKSVRGANWPDLEALPITQEQVESAEPAERILAYAEDEAIDLIVMGTHGRRGVDRMLFGSVTEEVVRKAPCPTLTVRADADVAPDQAVRRVLAPVDFSDASRSAVRHAKEIALTYGAEIDLLHVVEEPFYPPAYGLGETGFPTDKVIGSVEDELADLARSEVGYEHVMIEARTGEPSREILNYIDENEVDLTVIASHGRTGLDRMLIGSVAERVVRQSPTPVFVAKPDRAALVSSDAAEGHHHHHH	not soluble
MSLSKENIRKTSKIETKSKEFSRQNMIDLFDLYFYEDCPYQDESAELLRLVGRGKMRIVSRENGTSACAGDLAGYYEKKGLKVLNYFRDGENFKPGDAIFEAEGDIKLIFRFWRVSQTFLTMMCAIATKTASMVSEARRTNPDIIIATSRKTHPGARIFELKAVRAGGGDIHRNSLSDSIQISQNHLEVAGELGKLRAMKKIEIEPRSREEAFKYAEMSDIMLLDHLSPEELRELGPELKELNPELELAVGGIEAKRIPEYAPFVDIIVISAPYYANPLDFTTKIEREGHHHHHH	soluble
MSLSKMEEILVIGVNTRPVVESAFRLGYRVYSAGYYCTADFKHYTERRCILRERSGESCGRFHENFSQEKLLEAASDFIERADGIIPLTGAPPLPGEKVLGNSRVDHVEDKYRLYRRIRNSYPTPETHLISDPAEAMEIVAAGEKKYIAKPVSGAGGFGVTEFREGDGEFLLQEYIEGVPVSASVLSTGEDAITVLTSRQIIDRGVPGFEGQFVYAGNMTPGPSGEIEDLASDLILDLSLRGSNGVDLIMRDSELYVIEVNPRIQGTFECAEASLGINMVDAHIRACMGELIEKPDPVSYAVKRILYAPARCRVGEIKTMGVHDLPVPGTIIEEGEPLLTVLASHNSMEAAENLASNICSRVKKELHYLRCPPPRPQGVEGHHHHHH	not soluble
MSLSKYKPTWMIDAIYKITPAQLKKLGIKAVLTDLDNTLIAWNNPDGTEELKTWLLEMKNAGITVLVVSNNKDSRIKRVVEKFDLDYVARALKPTARGFKLAEKKLGLKPSEMLMVGDQIMTDIRGANAAGIRNVLVQPIVDTDGWNTRINRFFERKIMKYLSKKHPEMTWRGGLEEGHHHHHH	soluble
MSLSLDFSDNTFQPLAARMRPENLAQYIGQQHLLAAGKPLPRAIEAGHLHSMILWGPPGTGKTTLAEVIARYANADVERISAVTSGVKEIREAIERARQNRNAGRRTILFVDEVHRFNKSQQDAFLPHIEDGTITFIGATTENPSFELNSALLSRARVYLLKSLSTEDIEQVLTQAMEDKTRGYGGQDIVLPDETRRAIAELVNGDARRALNTLEMMADMAEVDDSGKRVLKPELLTEIAGERSARFDNKGDRFYDLISALHKSVRGSAPDAALYWYARIITAGGDPLYVARRCLAIASEDVGNADPRAMQVAIAAWDCFTRVGPAEGERAIAQAIVYLACAPKSNAVYTAFKAALADARERPDYDVPVHLRNAPTKLMKEMGYGQEYRYAHDEANAYAAGEVYFPPEIAQTRYYFPTNRGLEGKIGEKLAWLAEQDQNEGHHHHHH	soluble
MSLSLKIALISQNENLLNLFPKLALEKNFIPITKTASLTRASKIAFGLQDEVDAIISRGATSDYIKKSVSIPSISIKVTRFDTMRAVYNAKRFGNELALIAYKHSIVDKHEIEAMLGVKIKEFLFSSEDEITTLISKVKTENIKIVVSGKTVTDEAIKQGLYGETINSEGHHHHHH	not soluble
